Sequences and labels used below:
T1: EsCas13d, nuclease-dead (Eubacterium siraeum, UniProt B0MS50, R295A;H300A;R849A;H854A)
T1 sequence: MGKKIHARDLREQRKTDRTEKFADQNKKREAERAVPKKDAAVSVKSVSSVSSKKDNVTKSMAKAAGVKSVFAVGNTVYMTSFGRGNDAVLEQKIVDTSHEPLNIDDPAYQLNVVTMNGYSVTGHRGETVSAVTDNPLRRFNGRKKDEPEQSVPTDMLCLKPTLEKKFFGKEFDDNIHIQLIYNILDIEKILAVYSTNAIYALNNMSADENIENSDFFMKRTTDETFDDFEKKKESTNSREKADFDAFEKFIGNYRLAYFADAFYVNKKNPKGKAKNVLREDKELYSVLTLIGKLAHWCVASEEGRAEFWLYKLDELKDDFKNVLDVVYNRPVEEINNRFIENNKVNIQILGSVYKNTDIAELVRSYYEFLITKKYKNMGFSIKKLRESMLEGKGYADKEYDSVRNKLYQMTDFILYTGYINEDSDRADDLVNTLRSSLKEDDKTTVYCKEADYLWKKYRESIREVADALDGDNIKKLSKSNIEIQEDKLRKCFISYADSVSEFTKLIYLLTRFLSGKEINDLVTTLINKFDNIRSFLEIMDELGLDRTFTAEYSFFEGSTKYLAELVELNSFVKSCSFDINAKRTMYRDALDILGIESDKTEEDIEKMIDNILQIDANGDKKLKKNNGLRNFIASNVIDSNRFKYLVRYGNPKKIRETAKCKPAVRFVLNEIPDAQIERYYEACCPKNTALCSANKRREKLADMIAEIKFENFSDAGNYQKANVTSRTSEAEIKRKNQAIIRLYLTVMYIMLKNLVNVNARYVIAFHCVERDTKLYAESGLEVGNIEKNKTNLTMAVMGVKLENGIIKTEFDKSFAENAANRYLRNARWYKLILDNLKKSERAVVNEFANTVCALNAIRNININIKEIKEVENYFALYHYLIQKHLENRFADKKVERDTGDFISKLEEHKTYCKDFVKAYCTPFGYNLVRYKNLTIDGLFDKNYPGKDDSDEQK

B1: target 1 insU 3' of 7,insG 3' of 6 (mixed)
RNA 1: CACCCGUGCAAAAAUGCAGGGGUCUAAAACUGAGCGGAUAACCUCUCUAUGG
RNA 2: GGGAAUGGAUCCACAUCUACGAAUUCGUACCAUAGAGAGGUUAUCUCGGCUCACCGAGAUCGGAAGAGCACACGU
B2: target 1 insG 3' of 7,insU 3' of 2 (mixed)
RNA 1: CACCCGUGCAAAAAUGCAGGGGUCUAAAACUGAGCGGAUAACCUCUCUAUGG
RNA 2: GGGAAUGGAUCCACAUCUACGAAUUCGUACCAUAGAGAGGUUAUCGCGCUCUACCGAGAUCGGAAGAGCACACGU
B3: target 1 insA 3' of 21,insA 3' of 19 (mixed)
RNA 1: CACCCGUGCAAAAAUGCAGGGGUCUAAAACUGAGCGGAUAACCUCUCUAUGG
RNA 2: GGGAAUGGAUCCACAUCUACGAAUUCGUACCAAUAAGAGAGGUUAUCCGCUCACCGAGAUCGGAAGAGCACACGU
B4: target 1 insU 3' of 12,insG 3' of 6 (mixed)
RNA 1: CACCCGUGCAAAAAUGCAGGGGUCUAAAACUGAGCGGAUAACCUCUCUAUGG
RNA 2: GGGAAUGGAUCCACAUCUACGAAUUCGUACCAUAGAGAGGUUUAUCCGGCUCACCGAGAUCGGAAGAGCACACGU
B5: target 1 A9G,U11G (mixed)
RNA 1: CACCCGUGCAAAAAUGCAGGGGUCUAAAACUGAGCGGAUAACCUCUCUAUGG
RNA 2: GGGAAUGGAUCCACAUCUACGAAUUCGUACCAUAGAGAGGGUGUCCGCUCACCGAGAUCGGAAGAGCACACGU
B6: target 1 insC 3' of 11,insA 3' of 8 (mixed)
RNA 1: CACCCGUGCAAAAAUGCAGGGGUCUAAAACUGAGCGGAUAACCUCUCUAUGG
RNA 2: GGGAAUGGAUCCACAUCUACGAAUUCGUACCAUAGAGAGGUCUAUACCGCUCACCGAGAUCGGAAGAGCACACGU
B7: target 1 A18U (mixed)
RNA 1: CACCCGUGCAAAAAUGCAGGGGUCUAAAACUGAGCGGAUAACCUCUCUAUGG
RNA 2: GGGAAUGGAUCCACAUCUACGAAUUCGUACCAUUGAGAGGUUAUCCGCUCACCGAGAUCGGAAGAGCACACGU
B8: target 1 insU 3' of 4,insU 3' of 1 (mixed)
RNA 1: CACCCGUGCAAAAAUGCAGGGGUCUAAAACUGAGCGGAUAACCUCUCUAUGG
RNA 2: GGGAAUGGAUCCACAUCUACGAAUUCGUACCAUAGAGAGGUUAUCCGCUUCAUCCGAGAUCGGAAGAGCACACGU
B9: target 1 insG 3' of 16,insA 3' of 5 (mixed)
RNA 1: CACCCGUGCAAAAAUGCAGGGGUCUAAAACUGAGCGGAUAACCUCUCUAUGG
RNA 2: GGGAAUGGAUCCACAUCUACGAAUUCGUACCAUAGAGGAGGUUAUCCGACUCACCGAGAUCGGAAGAGCACACGU
B10: target 1 insA 3' of 21,insG 3' of 3 (mixed)
RNA 1: CACCCGUGCAAAAAUGCAGGGGUCUAAAACUGAGCGGAUAACCUCUCUAUGG
RNA 2: GGGAAUGGAUCCACAUCUACGAAUUCGUACCAAUAGAGAGGUUAUCCGCUGCACCGAGAUCGGAAGAGCACACGU
B11: target 1 G5U,G15U (mixed)
RNA 1: CACCCGUGCAAAAAUGCAGGGGUCUAAAACUGAGCGGAUAACCUCUCUAUGG
RNA 2: GGGAAUGGAUCCACAUCUACGAAUUCGUACCAUAGAUAGGUUAUCCUCUCACCGAGAUCGGAAGAGCACACGU
B12: target 1 U3C,G12C (mixed)
RNA 1: CACCCGUGCAAAAAUGCAGGGGUCUAAAACUGAGCGGAUAACCUCUCUAUGG
RNA 2: GGGAAUGGAUCCACAUCUACGAAUUCGUACCAUAGAGAGCUUAUCCGCCCACCGAGAUCGGAAGAGCACACGU
B13: target 1 insC 3' of 19,insA 3' of 13 (mixed)
RNA 1: CACCCGUGCAAAAAUGCAGGGGUCUAAAACUGAGCGGAUAACCUCUCUAUGG
RNA 2: GGGAAUGGAUCCACAUCUACGAAUUCGUACCAUCAGAGAGAGUUAUCCGCUCACCGAGAUCGGAAGAGCACACGU
B14: target 1 C4G,C22U (mixed)
RNA 1: CACCCGUGCAAAAAUGCAGGGGUCUAAAACUGAGCGGAUAACCUCUCUAUGG
RNA 2: GGGAAUGGAUCCACAUCUACGAAUUCGUAUCAUAGAGAGGUUAUCCGGUCACCGAGAUCGGAAGAGCACACGU
B15: target 1 A1G,A18U (mixed)
RNA 1: CACCCGUGCAAAAAUGCAGGGGUCUAAAACUGAGCGGAUAACCUCUCUAUGG
RNA 2: GGGAAUGGAUCCACAUCUACGAAUUCGUACCAUUGAGAGGUUAUCCGCUCGCCGAGAUCGGAAGAGCACACGU
B16: target 1 insC 3' of 9,insG 3' of 6 (mixed)
RNA 1: CACCCGUGCAAAAAUGCAGGGGUCUAAAACUGAGCGGAUAACCUCUCUAUGG
RNA 2: GGGAAUGGAUCCACAUCUACGAAUUCGUACCAUAGAGAGGUUACUCCGGCUCACCGAGAUCGGAAGAGCACACGU
B17: target 1 insA 3' of 17,insC 3' of 13 (mixed)
RNA 1: CACCCGUGCAAAAAUGCAGGGGUCUAAAACUGAGCGGAUAACCUCUCUAUGG
RNA 2: GGGAAUGGAUCCACAUCUACGAAUUCGUACCAUAGAAGAGCGUUAUCCGCUCACCGAGAUCGGAAGAGCACACGU
B18: target 1 insA 3' of 22,insC 3' of 15 (mixed)
RNA 1: CACCCGUGCAAAAAUGCAGGGGUCUAAAACUGAGCGGAUAACCUCUCUAUGG
RNA 2: GGGAAUGGAUCCACAUCUACGAAUUCGUACACAUAGAGCAGGUUAUCCGCUCACCGAGAUCGGAAGAGCACACGU
B19: target 1 insC 3' of 18,insU 3' of 12 (mixed)
RNA 1: CACCCGUGCAAAAAUGCAGGGGUCUAAAACUGAGCGGAUAACCUCUCUAUGG
RNA 2: GGGAAUGGAUCCACAUCUACGAAUUCGUACCAUACGAGAGGUUUAUCCGCUCACCGAGAUCGGAAGAGCACACGU
B20: target 1 A16U,G17A (mixed)
RNA 1: CACCCGUGCAAAAAUGCAGGGGUCUAAAACUGAGCGGAUAACCUCUCUAUGG
RNA 2: GGGAAUGGAUCCACAUCUACGAAUUCGUACCAUAAUGAGGUUAUCCGCUCACCGAGAUCGGAAGAGCACACGU
B21: target 1 insU 3' of 17,insG 3' of 9 (mixed)
RNA 1: CACCCGUGCAAAAAUGCAGGGGUCUAAAACUGAGCGGAUAACCUCUCUAUGG
RNA 2: GGGAAUGGAUCCACAUCUACGAAUUCGUACCAUAGUAGAGGUUAGUCCGCUCACCGAGAUCGGAAGAGCACACGU
B22: target 1 A9C,U10G (mixed)
RNA 1: CACCCGUGCAAAAAUGCAGGGGUCUAAAACUGAGCGGAUAACCUCUCUAUGG
RNA 2: GGGAAUGGAUCCACAUCUACGAAUUCGUACCAUAGAGAGGUGCUCCGCUCACCGAGAUCGGAAGAGCACACGU
B23: target 1 insC 3' of 20,insA 3' of 15 (mixed)
RNA 1: CACCCGUGCAAAAAUGCAGGGGUCUAAAACUGAGCGGAUAACCUCUCUAUGG
RNA 2: GGGAAUGGAUCCACAUCUACGAAUUCGUACCACUAGAGAAGGUUAUCCGCUCACCGAGAUCGGAAGAGCACACGU
B24: target 1 insG 3' of 21,insA 3' of 8 (mixed)
RNA 1: CACCCGUGCAAAAAUGCAGGGGUCUAAAACUGAGCGGAUAACCUCUCUAUGG
RNA 2: GGGAAUGGAUCCACAUCUACGAAUUCGUACCGAUAGAGAGGUUAUACCGCUCACCGAGAUCGGAAGAGCACACGU
B25: target 1 insC 3' of 10,insG 3' of 8 (mixed)
RNA 1: CACCCGUGCAAAAAUGCAGGGGUCUAAAACUGAGCGGAUAACCUCUCUAUGG
RNA 2: GGGAAUGGAUCCACAUCUACGAAUUCGUACCAUAGAGAGGUUCAUGCCGCUCACCGAGAUCGGAAGAGCACACGU
B26: target 1 A1C,A18U (mixed)
RNA 1: CACCCGUGCAAAAAUGCAGGGGUCUAAAACUGAGCGGAUAACCUCUCUAUGG
RNA 2: GGGAAUGGAUCCACAUCUACGAAUUCGUACCAUUGAGAGGUUAUCCGCUCCCCGAGAUCGGAAGAGCACACGU
B27: target 1 A14C (mixed)
RNA 1: CACCCGUGCAAAAAUGCAGGGGUCUAAAACUGAGCGGAUAACCUCUCUAUGG
RNA 2: GGGAAUGGAUCCACAUCUACGAAUUCGUACCAUAGAGCGGUUAUCCGCUCACCGAGAUCGGAAGAGCACACGU

This data set concerns the target T1, EsCas13d, nuclease-dead. The data set is described as follows: crRNA (strand 1, pre-loaded); Mg2+; 40 mM Tris-HCl pH 7.5, 150 mM NaCl, 6 mM MgCl2, 1 mM DTT, 0.1% Tween-20, 0.2 mg/ml BSA; 25 C; 10 min per concentration, then washed. As to conditions: tags: His6-TwinStrep-SUMO cleaved; N-terminal SNAP kept (SNAP-Surface 488); label: 3' end held by stalled T7 RNA polymerase.
In general, Kd refers to a measure of binding affinity in units of concentration. Higher therefore signals a looser complex. In the case of B1, the dissociation constant (Kd) was 16.7 ± 1.3 nM. With B2 the figure was 9.6 ± 0.9 nM; with B3, 32.2 ± 2.4 nM; with B4, 6.24 ± 0.17 nM. With B5, the dissociation constant (Kd) is 15.1 ± 0.7 nM. In turn, B6 displayed a Kd of 41.4 ± 3.2 nM. With B7 the figure was 26.4 ± 1.2 nM; with B8, 8.56 ± 0.33 nM.

Take B9: the Kd is 23.5 ± 1.5 nM. Against the preceding molecule, the Kd is about 2.7-fold higher. In the case of B10 it was 11.8 ± 0.6 nM; in that of B11, 31 ± 4 nM.

On to B12, for which the Kd is 14 ± 2.3 nM. In the case of B13 it was 19.5 ± 1.7 nM.

The molecule B14 came in with a Kd of 10 ± 2 nM. With B15 the figure was 24.6 ± 1.7 nM. In the case of B16 it was 14.4 ± 1.2 nM; in that of B17, 35 ± 4 nM; in that of B18, 28.5 ± 2.2 nM. Turning to B19, the Kd came out at 28.6 ± 1.7 nM. With B20 the figure was 44 ± 6 nM. For the molecule B21, binding was put at a Kd of 38 ± 4 nM. In the case of B22 it was 16.1 ± 0.6 nM.

Take B23: the dissociation constant Kd turned out to be 12.2 ± 1.1 nM. With B24 the figure was 64 ± 11 nM; with B25, 15.7 ± 0.8 nM; with B26, ~40 nM. With B27 the figure was 31 ± 7 nM.

The values above are taken from PMC10786891, “Massively parallel profiling of RNA-targeting CRISPR-Cas13d”.
